These results are taken from publication PMC12311110, “Mapping of endosomal proximity proteomes reveals Retromer as a hub for RAB GTPase regulation” (Nature Communications, 2025).

This test addresses mVps29 (mouse (printed as mVps29), UniProt Q9QZ88 1-182). In words: crystal structure; hanging drop, 20 °C; 0.1 M Tris-HCl pH 8.5, 0.2 M MgCl2, 30% PEG4000; 3-fold molar excess of peptide over mVps29. The note with it: both partners purified.

B1: human DENND4C peptide 1189-1206 (peptide)
peptide: AKVVQREDVETGLDPLSL
notes: also called hDENND4C_(1189-1206); DENND4C PL motif-containing peptide; source: synthetic peptide
For the molecule B1, the binding result is “binds”.
